Ends that are not written are not given here. * marks the point of attachment. Biotin = O=C1N[C@H]2[C@H](CS[C@H]2CCCCC(=O)*)N1
Assays:
[1] = target: T1, GST-KIAA0559 PDZ domain fusion protein (KIAA0559 AA766-870; PDZ1 of 1) (UniProt P08515 1-218 = GST); assay: A/G assays
T1 construct: also called K559

[2] = target: GST-prIL16 PDZ domain fusion protein (putative interleukin 16 precursor AA170-383; PDZ domains 1-2 of 2) (UniProt P08515 1-218 = GST); assay: A/G assays
[3] = target: T2, GST-KIAA0316 PDZ domain fusion protein (KIAA0316 AA197-284; PDZ domain 1 of 1) (UniProt P08515 1-218 = GST); assay: A/G assays
T2 construct: also called K316

[4] = target: GST-TIAM1 PDZ domain fusion protein (T-lymphoma invasion and metastasis inducing protein 1 AA1001-1088); PDZ 1 … (UniProt P08515 1-218 = GST); assay: A/G assays
GST-TIAM1 PDZ domain fusion protein (T-lymphoma invasion and metastasis inducing protein 1 AA1001-1088); PDZ 1 …, sequence (P08515 1-218, tags or fused parts left off): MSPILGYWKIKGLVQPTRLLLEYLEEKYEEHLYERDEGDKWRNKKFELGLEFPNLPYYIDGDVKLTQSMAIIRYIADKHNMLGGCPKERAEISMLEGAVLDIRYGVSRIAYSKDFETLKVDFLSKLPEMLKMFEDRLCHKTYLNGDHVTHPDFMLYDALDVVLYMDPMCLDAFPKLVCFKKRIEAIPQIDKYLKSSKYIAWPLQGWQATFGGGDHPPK

[5] = target: T3, GST-AF6 PDZ domain fusion protein (af-6 protein AA985-1077; PDZ domain 1 of 1) (UniProt P08515 1-218 = GST); assay: A/G assays
T3 sequence (P08515 1-218, tags or fused parts left off): as above

[6] = target: GST-LIM PDZ domain fusion protein (Human LIM protein AA29-112; PDZ domain 1 of 1) (human, UniProt P08515 1-218 = GST); assay: A/G assays
GST-LIM PDZ domain fusion protein (Human LIM protein AA29-112; PDZ domain 1 of 1), sequence (P08515 1-218, tags or fused parts left off): as above

[7] = target: GST-LIMK2 PDZ domain fusion protein (human LIM domain kinase 2 AA185-275; PDZ domain 1 of 1) (human, UniProt P08515 1-218 = GST); assay: A/G assays
GST-LIMK2 PDZ domain fusion protein (human LIM domain kinase 2 AA185-275; PDZ domain 1 of 1), sequence (P08515 1-218, tags or fused parts left off): as above

[8] = target: T4, GST-TAX33 PDZ domain fusion protein (tax interaction protein 33 AA73-162; PDZ domain 1 of 1) (UniProt P08515 1-218 = GST); assay: A/G assays
T4 construct: also called TX33
T4 sequence (P08515 1-218, tags or fused parts left off): as above

[9] = target: GST-NOS1 PDZ domain fusion protein (human neuronal nitric oxide synthase; PDZ domain 1 of 1) (human, UniProt P08515 1-218 = GST); assay: A/G assays
[10] = target: T5, GST-CBP PDZ domain fusion protein (Cytohesin binding protein HE AA85-175; PDZ domain 1 of 1) (UniProt P08515 1-218 = GST); assay: A/G assays
T5 construct: also called Prot
T5 sequence (P08515 1-218, tags or fused parts left off): as above

[11] = target: T6, GST-KIAA0303 PDZ domain fusion protein (KIAA0303 AA652-742; PDZ domain 1 of 1) (UniProt P08515 1-218 = GST); assay: A/G assays
T6 construct: also called K303
T6 sequence (P08515 1-218, tags or fused parts left off): as above

[12] = target: T7, GST-CASK PDZ domain fusion protein (CASK AA495-584; PDZ domain 1 of 1) (mouse, UniProt P08515 1-218 = GST); assay: A/G assays
T7 construct: also called mCASK

[13] = target: T8, GST-TAX40 PDZ domain fusion protein (human tax interaction protein 40 AA35-137; PDZ domain 1 of 1) (human, UniProt P08515 1-218 = GST); assay: A/G assays
T8 construct: also called TX 40
T8 sequence (P08515 1-218, tags or fused parts left off): as above

[14] = target: GST-MINT3 PDZ domain fusion protein (human MINT3 AA11-52; PDZ domain 1 of 1) (human, UniProt P08515 1-218 = GST); assay: A/G assays
GST-MINT3 PDZ domain fusion protein (human MINT3 AA11-52; PDZ domain 1 of 1), sequence (P08515 1-218, tags or fused parts left off): as above

[15] = target: T9, GST-TAX2 PDZ domain fusion protein (human tax interaction protein 2 AA54-140; PDZ domain 1 of 1) (human, UniProt P08515 1-218 = GST); assay: A assay
T9 construct: also called TX 2
T9 sequence (P08515 1-218, tags or fused parts left off): as above

[16] = target: T10, GST-MPP1 PDZ domain fusion protein (55 Kd erythrocyte membrane protein AA101-186; PDZ domain 1 of 1) (UniProt P08515 1-218 = GST); assay: A assay
T10 sequence (P08515 1-218, tags or fused parts left off): as above

[17] = target: T11, GST-DVL1 PDZ domain fusion protein (human dishevelled segment polarity protein homolog AA248-340); PDZ domain … (human, UniProt P08515 1-218 = GST); assay: A assay
T11 sequence (P08515 1-218, tags or fused parts left off): as above

[18] = target: T12, GST-TAX43 PDZ domain fusion protein (human tax interaction protein 43 AA15-85; PDZ domain 1 of 1) (human, UniProt P08515 1-218 = GST); assay: A assay
T12 construct: also called TX 43
T12 sequence (P08515 1-218, tags or fused parts left off): as above

[19] = target: T13, GST-MPP2 PDZ domain fusion protein (maguk p55 subfamily member 2 (DLG2) AA185-273; PDZ domain 1 of 1) (UniProt P08515 1-218 = GST); assay: G assay
T13 construct: also called MMP2

[20] = target: T14, GST-SYN1a PDZ domain fusion protein (alpha1-syntrophin AA96-189; PDZ domain 1 of 1) (UniProt P08515 1-218 = GST); assay: G assay
T14 construct: also called SYN 1 alpha; SYNTR 1 alpha
T14 sequence (P08515 1-218, tags or fused parts left off): as above

[21] = target: T15, GST-RGS12 PDZ domain fusion protein (human regulator of G-protein signalling 12 AA35-103; PDZ domain 1 of 1) (human, UniProt P08515 1-218 = GST); assay: A and G assays
T15 construct: also called RSG12
T15 sequence (P08515 1-218, tags or fused parts left off): as above

[22] = target: T16, GST-41.8 kD PDZ domain fusion protein (hypothetical 41.8 kD protein AA4-85; PDZ domain 1 of 1) (UniProt P08515 1-218 = GST); assay: A and G assays
T16 construct: also called hypoth
T16 sequence (P08515 1-218, tags or fused parts left off): as above

[23] = target: T17, GST-PTN-4 PDZ domain fusion protein (protein-tyrosine phosphatase meg1 AA774-862; PDZ domain 1 of 1) (UniProt P08515 1-218 = GST); assay: A and G assays
T17 sequence (P08515 1-218, tags or fused parts left off): as above

[24] = target: T18, GST-PSD95 PDZ domain fusion protein (human post-synaptic density protein 95 AA387-724; PDZ domains 1-3 of 3) (human, UniProt P08515 1-218 = GST); assay: A and G assays
T18 sequence (P08515 1-218, tags or fused parts left off): as above

[25] = target: T19, GST-NeDLG PDZ domain fusion protein (presynaptic protein sao102, neuroendocrine-dlg; PDZ domains 1-2 of 3) (UniProt P08515 1-218 = GST); assay: A and G assays
T19 construct: also called NeDLG1
T19 sequence (P08515 1-218, tags or fused parts left off): as above

[26] = target: T15, GST-RGS12 PDZ domain fusion protein …; assay: A/G assays
[27] = target: T17, GST-PTN-4 PDZ domain fusion protein …; assay: A/G assays
[28] = target: T9, GST-TAX2 PDZ domain fusion protein …; assay: A/G assays
[29] = target: T14, GST-SYN1a PDZ domain fusion protein …; assay: A/G assays
[30] = target: T11, GST-DVL1 PDZ domain fusion protein …; assay: A/G assays
[31] = target: T12, GST-TAX43 PDZ domain fusion protein …; assay: A/G assays
[32] = target: T16, GST-41.8 kD PDZ domain fusion protein …; assay: A assay
[33] = target: T13, GST-MPP2 PDZ domain fusion protein …; assay: A assay
[34] = target: T3, GST-AF6 PDZ domain fusion protein (af-6 …); assay: A assay
[35] = target: T18, GST-PSD95 PDZ domain fusion protein …; assay: G assay
[36] = target: T19, GST-NeDLG PDZ domain fusion protein …; assay: G assay
[37] = target: T10, GST-MPP1 PDZ domain fusion protein (55 …); assay: A/G assays

T1 sequence (P08515 1-218, tags or fused parts left off): as above
GST-prIL16 PDZ domain fusion protein (putative interleukin 16 precursor AA170-383; PDZ domains 1-2 of 2), sequence (P08515 1-218, tags or fused parts left off): as above

Binder | binding result [1] | binding result [2] | binding result [3] | binding result [4] | binding result [6] | binding result [7] | binding result [8] | binding result [9] | binding result [10] | binding result [11] | binding result [12] | binding result [13] | binding result [14] | further results
Biotin-LNSCSNRRVYKKMPSIESDV [NMDA C-terminal PL peptide AA34.2L, biotinylated] | no binding | no binding | no binding | no binding | no binding | no binding | no binding | no binding | no binding | no binding | no binding | no binding | no binding | binding result [5]: no binding; binding result [15]: binds; binding result [16]: binds; binding result [17]: binds; binding result [18]: binds; binding result [19]: binds; binding result [20]: binds; binding result [21]: binds; binding result [22]: binds; binding result [23]: binds; binding result [24]: binds; binding result [25]: binds
Biotin-QGDPALQDAGDSSRKEYFI (also called GC) [Glycophorin C C-terminal PL peptide AA37L, biotinylated] | no binding | no binding | no binding | no binding | no binding | no binding | no binding | no binding | no binding | no binding | no binding | no binding | no binding | binding result [26]: no binding; binding result [27]: no binding; binding result [28]: no binding; binding result [29]: no binding; binding result [30]: no binding; binding result [31]: no binding; binding result [32]: binds; binding result [33]: binds; binding result [34]: binds; binding result [35]: binds; binding result [36]: binds; binding result [37]: no binding
